# Results as given in publication PMC3202338.
# Assays:
# [1] = target: CFP-PAcKer [GFP: P42212]; test: ITC
# [2] = target: Bodipy conjugated IS_helix (Ser-36 mutated to cysteine); test: fluorescence polarisation
# [3] = target: mero-CFP-PAcKer [GFP: P42212]; test: other fluorescence titration
# [4] = target: IS_hairpin; test: ITC
# [5] = target: alternative design: trunc-WT_IS-2 domain (PAK1 residues 87–137) inserted into CFP with glycine-serine linkers [GFP: P42212]; test: ITC
# [6] = target: WT_IS domain (residue 83–137 in full-length PAK1 sequence) (UniProt Q13153); test: ITC
# [7] = target: IS_helix; test: ITC
Kd [1],Kd [2],Kd [3],Kd [4],Kd [5],Kd [6],Kd [7],Substance
3300 nM,,,,,,,"PAK1^V127E/S144E (full-length PAK1 stabilized in the 'open' state, kinase dead K298R) (from UniProt Q13153 1-545) (enzyme)"
400 nM,15000 nM,600 nM,2600 nM,1650 nM,4000 nM,1600 nM,"PAK1 kinase domain (K298R mutant), residues 250–545 (from UniProt Q13153 250-545) (domain or fragment)"
